{
  "source": "the nanobody polyreactivity screen of Harvey et al. (2022)",
  "data": [
    {"assay": "yeast display, Sf9 membrane polyspecificity reagent, FACS + sequencing; frameworks hold sequencing errors", "summary_of_the_method": "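Synthetic nanobody libraries on Saccharomyces cerevisiae BJ5465 were galactose-induced for 36–48 hours, stained 1 hour at 4 °C with 10% biotinylated, detergent-solubilized Sf9 membrane reagent and enriched on streptavidin microbeads. FACS then separated cells into low and high (top ~1%) gates by anti-HA (expression) and streptavidin (reagent binding) fluorescence. Genes were colony-PCR amplified, MiSeq 2 × 250 sequenced and CDR-length filtered. A clone's polyreactivity label is that of its gate of origin.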", "values": [
      {"sequence": "QVQLLESGGGLLQAGGSLRLSCAASGLTFGKYAMGWYRQAPGKERELVAAINSSGGSTYYADSVKGRFTISRDNAKNTVYLQMNSLKPEDSAVYYRAVAVYRLIYFVYNYWGQGTQVTVSS", "polyreactivity (PSR sort gate)": "low polyreactivity"},
      {"sequence": "QVQLLESGGGLVHSGGSLRLSCASSGRIFPSNTMGSYRPAPGKERELVADISFGGGSTSYADSVKGRFTISRDNAKNTVYLQMNRLKPEDTAVYYCNADRDDDYDYWGQGTQVTLSS", "polyreactivity (PSR sort gate)": "low polyreactivity"},
      {"sequence": "QVQLLESGGGLVQAGASLRLSCAASGSIFLPNAMGWSRQAPGKERELVAAISWSGGSTYADSVKGRITISRDNAKNTVYLQMNILKPEDTAFYFCAADDGFTPRDLYVCYDYWGQGTQVTVSS", "polyreactivity (PSR sort gate)": "low polyreactivity"},
      {"sequence": "QVQLLESGGGLVQAGCSLRLSCAASGFTFKSNAMGWYRQAPGKESELVARINRSGGSTYYADSVKGRFTISRYNAKNTVYLQMNSLKPEDTAVYYCARGRYTLYESKYDYWGQGTQVTVSS", "polyreactivity (PSR sort gate)": "high polyreactivity"},
      {"sequence": "QVQLLESGGGLVQAGGCLRLSCAASGFTFYGYARGWYRQAPGIERELVAGIAKCGTRTYYADSLKGRFTISRDNAENTVFFQMNSLKPEDTAVYYCAARLRRGLTATWYYYWGQGSQVTVSS", "polyreactivity (PSR sort gate)": "high polyreactivity"},
      {"sequence": "QVQLLESGGGLVQAGGSLGCAASGNISTRSEMGWYRQAPGKEREFVATINSGGITNYADSVKGRFTISRDNENNTVYLGMNSLKPEDTAVYYRAVYVYFSDPYDYWGQGTQVTVSS", "polyreactivity (PSR sort gate)": "low polyreactivity"},
      {"sequence": "QVQLLESGGGLVQAGGSLRLSCAASGFIICYNGMGWYRQAPGKERELVAGITYSDGSTYYADSVKGRFTISRDNAKITVYLQMNSLKPEDTAVYYCAVDVFYYWAEDYDYWGQGTQVTVSS", "polyreactivity (PSR sort gate)": "low polyreactivity"},
      {"sequence": "QVQLLESGGGLVQAGGSLRLSCAASGFNFGVYAMGWYRQAPGKERELVAAITRSGGSTYYADSVKGRYTISRDNAKNSVYLQMNSLNPEDTAVYYCAARARDHYGYWGQGTQVSVSS", "polyreactivity (PSR sort gate)": "high polyreactivity"},
      {"sequence": "QVQLLESGGGLVQAGGSLRLSCAASGFTFNPYAMGWYRQAPGKERELVARISRGTSTNYADSVKGRFTISRDNAKNTVYLQMNSLKPEDTAVYYCAASYGSFHTYLDYNYWGQGTQVTVSS", "polyreactivity (PSR sort gate)": "low polyreactivity"},
      {"sequence": "QVQLLESGGGLVQAGGSLRLSCAASGFTFYRYAMGWYRQAPGKERELVAVISGSGTSTYYADSVKGRFTISRDIAKNTVYLQMNSLKQEDTAVYYCAASQSIFSGHVRYRVDYDSWGQGTQVSVSS", "polyreactivity (PSR sort gate)": "high polyreactivity"},
      {"sequence": "QVQLLESGGGLVQAGGSLRLSCAASGFTLAFNAMGWYRQAPGKERELVASITSSSGSTYYADSVKGRFTISRDNAKNTVYLQLNSLKPEDTAVYYCARDLAIPQVLSQPIFGYWGQGTQVTVSS", "polyreactivity (PSR sort gate)": "low polyreactivity"},
      {"sequence": "QVQLLESGGGLVQAGGSLRLSCAASGGIFPAYAMGWYRQAPGKERELFADITNGGSTYYADSVKGRFTISRDNAKNTVYLQMNSLKPEDTAVYYCNAREFWRTRFGCGYPYRRNMDYWGQGTQVTVSS", "polyreactivity (PSR sort gate)": "low polyreactivity"},
      {"sequence": "QVQLLESGGGLVQAGGSLRLSCAASGIIFSSNAMGWYRKAPGKERELVAAITRRGGSTRYADSVKGRFTISRDNAKNTVYLQMNSLKPEDTAVYYCNALSGYPYRWGISYPMDYWGQGTQVTVSS", "polyreactivity (PSR sort gate)": "high polyreactivity"},
      {"sequence": "QVQLLESGGGLVQAGGSLRLSCAASGIIFVRYVMGWYRQAPVKERELVAAINWSGGSTYYADSVKGRFTISRDNAKNTVYLQMNSLKPEDTAVYYCAAGSARDDDYWGQGTQVTVSS", "polyreactivity (PSR sort gate)": "high polyreactivity"},
      {"sequence": "QVQLLESGGGLVQAGGSLRLSCAASGNTFYPNAMGWYRPAPGKETELVAAISSSGGSTYYADSVKGRFTISRDNAKNTVYLQMKSLNPEDTAVYYCASEFDYPLSGEYYYWGKGTQVTVSS", "polyreactivity (PSR sort gate)": "high polyreactivity"},
      {"sequence": "QVQLLESGGGLVQAGGSLRLSCAASGRILTGYAMGWYRQAPGKERELFSSINWRGGSTYYADSVKGRFTISRDNAKNTVYLQMISLIPEDTAVYYCAARVLVTGTYYTIYDYWGQCTQVTVSS", "polyreactivity (PSR sort gate)": "high polyreactivity"},
      {"sequence": "QVQLLESGGGLVQAGGSLRLSCAASGSISVAYAMGWYRQAPGKERELVATIRSGDSTYYADSVKGRFTISRDNAKNTVYLQMNSLKPEDTAVYYCNADATDSYPEKDEHDSWGQGTQVTVSS", "polyreactivity (PSR sort gate)": "low polyreactivity"},
      {"sequence": "QVQLLESGGGLVQAGGSLRLSCAASGSTFASYAMGWYRQAPGKETELVAAITRTGSTYYADSVKGRFTISRDNAKNTVYLQMNSLKPEDTAVYYCAKLWIGGYKYYYWGQGTQVTVSS", "polyreactivity (PSR sort gate)": "high polyreactivity"},
      {"sequence": "QVQLLESGGGLVQAGGSLRLSCAASGSTFRYYAMGWYRQAPGKERELVAAISKSGGRTYYADSVKGRFTISRDNAKHTVYLQMNSLKPEDTAVYYCAADSKEVRYDYWGQGTQVTVSS", "polyreactivity (PSR sort gate)": "high polyreactivity"},
      {"sequence": "QVQLLESGGGLVQAGGSLRLSCAASGSTFYCYTMGWYRQAPGKERELVARISSSGSTNYADSVKGRFTISRDNAKNTVYLQMNSLKPEDTAVYYCNKDWIYRGYDYWGQGTQVTVSS", "polyreactivity (PSR sort gate)": "high polyreactivity"},
      {"sequence": "QVQLLESGGGLVQAGGSLRLSCAASGYTFASYAMGWYRQAPGKERELVASISNGGGTNYADSVKGLFRISRDNAKNTVYLQMNSLKPEDTAVYYCAKRYRYYSHSYYYWGQCTQVTVSS", "polyreactivity (PSR sort gate)": "high polyreactivity"},
      {"sequence": "QVQLLESGGGLVQAGGSLRLSCAASGYTFTWYAMGWYRQAPGTEREFVAAISIGGDSTYYADSVKGRFTNSRDNAKNTVYLLMNSLIPEDTAVYYCAADTYPRWILLIGELQVETSYDYWGQGTQVTVSS", "polyreactivity (PSR sort gate)": "low polyreactivity"},
      {"sequence": "QVQLLESGGGLVQAGGSLRLSCAASRTISYAGTRLWYRQAPGKEREFVAGIGVGSNTNYADSVKGRYTIIRDNAINTVYLQMTSLKPEDTAVYYCAVGGYAPLGRPFWGQGTQVSVSS", "polyreactivity (PSR sort gate)": "low polyreactivity"},
      {"sequence": "QVQLLESGGGLVQAGGSLRLSCAASVSIFPKNTMGWYIQAPGKERELVAAISKSGGSTYYADSVKGRFTISRDNAKNTVYLQMNSLKPEDTAVYYCAAALGLRSTSWGRRGGGGDYWGQGTQVTGSS", "polyreactivity (PSR sort gate)": "high polyreactivity"},
      {"sequence": "QVQLLESGGGLVQAGGSLRLSCAPSGSTIAWYAMGWYIHAPGKERELVAAITQSGGSTYYADSVKGRFTISRDNEKNTVYLLMIRLKPEDTAVYYCAAYPGYAKYRYDFWGPGTQVTVSS", "polyreactivity (PSR sort gate)": "high polyreactivity"},
      {"sequence": "QVQLLESGGGLVQAGGSLRLSCASSGFIFAIYAMGWYRQAPGKERELVAAITSSSSTYADSVKGRFTISRDNAKNTVYLQMNSLKPEDTAVYYCAADTYSYRYSNDYWGQGTQVTVSS", "polyreactivity (PSR sort gate)": "low polyreactivity"},
      {"sequence": "QVQLLESGGGLVQAGGSLRLSCASSGRTFRSYGMGWYRQAPGKERELVAVISWRDGSTFYADSVKGRFTISRDNAKNTVYLQMNSLKPEDTAVYYCNARGDVIVTPPKFSFKYEYWGQGTQVTVSS", "polyreactivity (PSR sort gate)": "low polyreactivity"},
      {"sequence": "QVQLLESGGGLVQAGGSLRLSCASSGRTFVYYAMGRYRQAPGKERELVAAITFSGGSTYYADSVKGRFTISRDNAKNTVYLQMNSLKPEDTAVYYCAAQYRYSYPLGDYWGQGPQVTVSS", "polyreactivity (PSR sort gate)": "low polyreactivity"},
      {"sequence": "QVQLLESGGGLVQAGGSLRLSCMASGSILADRISWYRQAPRIEHELVATLYDGGITYYADSMKGRFTMSRDNAKNTVYLQMNSLRPEDTAVYYCGASFEGYRYHVYCGQGTQVTVSS", "polyreactivity (PSR sort gate)": "low polyreactivity"},
      {"sequence": "QVQLLESGGGLVQAGGSLRLTCAASGFIFDQYGMGWYRQAPGKERELVASITSTGSTYYADSVKGRFTISRDNAKNTVYLQMNSLKPEDTAVYYCATDSYDGMDYWGHGTQVTVSS", "polyreactivity (PSR sort gate)": "low polyreactivity"},
      {"sequence": "QVQLLESGGGLVQAGGSLRLTCAASGLTFSNYAMGWYRQAPGKERELVADIRSGGNTNYADSVKGRFTISRDNAKNTVYLQMNSLKPEDTAVYYCATDGYRIDVYHPDYRYDYWGQGTQVTVSS", "polyreactivity (PSR sort gate)": "low polyreactivity"}
    ]}
  ]
}
